These sequences were tested against EPHB2 (UniProt P29323) (assay: phosphorylation enrichment, bacterial display (enrichment ratio); higher = better substrate or ligand; peptides without Tyr show the background).
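Note: 11-residue human phosphosite peptides and single-mutation variants displayed on the E. coli surface, counted by deep sequencing, each peptide's frequency after selection divided by its frequency in the unselected input library; frequency after pTyr selection over input frequency; kinase dosed for 20-30% of maximal phosphorylation in three min.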

Sequence of EPHB2 (P29323 whole entry, looked up): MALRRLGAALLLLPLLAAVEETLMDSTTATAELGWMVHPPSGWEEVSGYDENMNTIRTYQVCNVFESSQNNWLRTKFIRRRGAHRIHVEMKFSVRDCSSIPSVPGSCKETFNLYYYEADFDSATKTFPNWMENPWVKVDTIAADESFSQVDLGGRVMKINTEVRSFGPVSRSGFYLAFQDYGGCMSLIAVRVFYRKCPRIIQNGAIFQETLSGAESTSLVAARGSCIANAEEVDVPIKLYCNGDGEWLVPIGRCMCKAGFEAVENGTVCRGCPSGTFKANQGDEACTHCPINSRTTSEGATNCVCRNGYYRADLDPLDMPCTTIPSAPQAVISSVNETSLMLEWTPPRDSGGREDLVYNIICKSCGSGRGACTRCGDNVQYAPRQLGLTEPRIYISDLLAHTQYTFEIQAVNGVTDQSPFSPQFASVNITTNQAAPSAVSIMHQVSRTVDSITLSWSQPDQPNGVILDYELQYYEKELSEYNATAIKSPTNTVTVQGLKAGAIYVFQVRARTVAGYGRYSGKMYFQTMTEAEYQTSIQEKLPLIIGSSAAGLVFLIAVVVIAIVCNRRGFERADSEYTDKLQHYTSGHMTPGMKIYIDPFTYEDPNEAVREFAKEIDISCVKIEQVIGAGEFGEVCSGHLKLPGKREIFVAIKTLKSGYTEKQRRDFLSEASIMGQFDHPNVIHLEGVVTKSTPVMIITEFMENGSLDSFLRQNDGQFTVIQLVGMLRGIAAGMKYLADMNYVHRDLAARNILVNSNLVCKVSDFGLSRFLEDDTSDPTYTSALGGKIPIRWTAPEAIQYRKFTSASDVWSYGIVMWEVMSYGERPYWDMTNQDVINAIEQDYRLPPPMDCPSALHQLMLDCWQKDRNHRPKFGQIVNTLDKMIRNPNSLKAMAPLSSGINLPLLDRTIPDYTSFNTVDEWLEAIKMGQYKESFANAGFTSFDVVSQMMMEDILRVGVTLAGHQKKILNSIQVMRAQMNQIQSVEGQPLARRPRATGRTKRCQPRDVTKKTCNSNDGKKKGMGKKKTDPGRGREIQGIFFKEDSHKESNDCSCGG

Sequence | phosphorylation enrichment
ERPGVHTNVVE [F11_Y608_Y608H] | 0.769
NMSRIYSTTKV [ACE_Y151_A154T] | 0.302
QDRTYYERVRT [SPEN_Y633_S635R] | 0.767
KMMGRYEMFAR [UPB1_Y362_T359M_YF] | 0.393
IMVFVYSRVFQ [ADRB2_Y219] | 0.484
LIDGFYRLTED [JAK2_Y373_A377E_YF] | 0.89
KMKGDYFCFLA [YWHAG_Y130_R132C_YF] | 1.56
RNIQQCNSFVS [PRKAR1A_Y373_Y373C] | 0.634
GLIPAYHRFIM [NMNAT1_Y64_V67F] | 0.423
CPFNLYAEQLS [HGD_Y40_YF] | 0.816
RISPEYKQNEI [GJB1_Y243_L239I] | 0.73
GDPTEYYITAI [IGSF22_Y501_S503I] | 0.647
RLGVTYEQALA [MAP2_Y996_G991R] | 1.81
YLQEIYNSNNQ [FGG_Y140] | 0.561
LNRAGYCDALE [MTUS1_Y151_C148R] | 0.988
TLQIMYGCDVG [HLA-A_Y123_I119L] | 0.606
EPNSRYTYKLE [USH2A_Y3745] | 0.46

Sequence | phosphorylation enrichment
EERNTYVNTTL [TEK_Y1102_K1100N] | 0.531
KLADMYGGGED [CDH1_Y876] | 0.43
WTAHSYRMGSA [ARHGEF7_Y785_T790A] | 0.457
PGPPGYCDSSH [COL12A1_Y3043_Q3048H] | 0.514
SIKDKYVTAVY [KCNH2_Y611_L615V] | 0.423
TKVTFYKQPMF [GBA_Y451_D448V] | 0.526
AHDGEYGAEAL [HBA1_Y25_A22D] | 0.62
AELKLYSGAQT [ZAP70_Y178_R175L] | 0.571
YECKWYIPLTD [BCR_Y756_D752E] | 0.774
WFPANYVKLLN [ITSN1_Y1132_S1137N] | 1.21
GGGMIYPLDLF | 0.496
EIVHRYVELLD [AP1S3_Y87] | 0.53
ISKKIYDPIHD [CTNNA3_Y614_T616P] | 0.475
NIKKEYTKMVQ [PMS2_Y181_A182T] | 0.333
LSQDVYEEDSF [RET_Y900_R897Q_YF] | 0.962
TIMTDYNPNFC [ALK_Y1092_YF] | 0.491

What follows are sequences tested on c-Abl (mouse) in the same assay as above.

Sequence | phosphorylation enrichment
ERPGVHTNVVE [F11_Y608_Y608H] | 0.717
NMSRIYSTTKV [ACE_Y151_A154T] | 0.583
QDRTYYERVRT [SPEN_Y633_S635R] | 0.639
KMMGRYEMFAR [UPB1_Y362_T359M_YF] | 0.464
IMVFVYSRVFQ [ADRB2_Y219] | 0.844
LIDGFYRLTED [JAK2_Y373_A377E_YF] | 0.974
KMKGDYFCFLA [YWHAG_Y130_R132C_YF] | 2.24
RNIQQCNSFVS [PRKAR1A_Y373_Y373C] | 0.922
GLIPAYHRFIM [NMNAT1_Y64_V67F] | 0.619
CPFNLYAEQLS [HGD_Y40_YF] | 0.77
RISPEYKQNEI [GJB1_Y243_L239I] | 1.06
GDPTEYYITAI [IGSF22_Y501_S503I] | 0.809
RLGVTYEQALA [MAP2_Y996_G991R] | 0.965
YLQEIYNSNNQ [FGG_Y140] | 0.692
LNRAGYCDALE [MTUS1_Y151_C148R] | 0.749
TLQIMYGCDVG [HLA-A_Y123_I119L] | 0.997
EPNSRYTYKLE [USH2A_Y3745] | 0.753

Sequence | phosphorylation enrichment
EERNTYVNTTL [TEK_Y1102_K1100N] | 0.638
KLADMYGGGED [CDH1_Y876] | 0.455
WTAHSYRMGSA [ARHGEF7_Y785_T790A] | 0.495
PGPPGYCDSSH [COL12A1_Y3043_Q3048H] | 1.21
SIKDKYVTAVY [KCNH2_Y611_L615V] | 0.441
TKVTFYKQPMF [GBA_Y451_D448V] | 0.588
AHDGEYGAEAL [HBA1_Y25_A22D] | 0.608
AELKLYSGAQT [ZAP70_Y178_R175L] | 0.526
YECKWYIPLTD [BCR_Y756_D752E] | 1
WFPANYVKLLN [ITSN1_Y1132_S1137N] | 0.759
GGGMIYPLDLF | 0.804
EIVHRYVELLD [AP1S3_Y87] | 0.744
ISKKIYDPIHD [CTNNA3_Y614_T616P] | 0.445
NIKKEYTKMVQ [PMS2_Y181_A182T] | 0.502
LSQDVYEEDSF [RET_Y900_R897Q_YF] | 1.58
TIMTDYNPNFC [ALK_Y1092_YF] | 0.783

Reference: the supplement of paper PMC10065799, “High-throughput profiling of sequence recognition by tyrosine kinases and SH2 domains using bacterial peptide display” (eLife, 2023)
